In paper PMC11638004, “Phosphorylation of auxin signaling repressor IAA8 by heat-responsive MPKs causes defective flower development” (Plant Physiology, 2024):

What was measured:
Experiment in all cases: pull-down; 2 μg GST-IAA8 or GST on glutathione-Sepharose-4B beads, 5 μg His-MPK added, overnight at 4°C; 50 mM Tris-HCl pH 7.5, 200 mM NaCl, 0.1 mM EDTA, 0.5 mM DTT, 1% Triton X-100; four washes; immunoblot with anti-His
Conditions in all cases: both partners purified
[1] = target: T1, His-MPK3 (Arabidopsis thaliana, UniProt Q39023 1-370)
T1 construct: The N-terminal position of the His tag is read from the name His-MPK3 and the vector pQE30; also called His-fused MPK3; source: E. coli M15, purified (Ni-NTA agarose); not shown: His, N-terminal, kept
T1 sequence (looked up): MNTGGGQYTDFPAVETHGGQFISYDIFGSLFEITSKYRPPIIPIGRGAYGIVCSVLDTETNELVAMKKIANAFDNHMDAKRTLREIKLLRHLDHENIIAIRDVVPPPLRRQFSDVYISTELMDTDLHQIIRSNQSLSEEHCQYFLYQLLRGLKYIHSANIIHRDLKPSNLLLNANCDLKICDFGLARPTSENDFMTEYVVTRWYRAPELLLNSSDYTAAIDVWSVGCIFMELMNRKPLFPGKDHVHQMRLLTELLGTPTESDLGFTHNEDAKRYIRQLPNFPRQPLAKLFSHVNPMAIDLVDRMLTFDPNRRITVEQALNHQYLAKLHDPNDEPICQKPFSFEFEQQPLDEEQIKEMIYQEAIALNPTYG

[2] = target: T2, His-MPK6 (Arabidopsis thaliana, UniProt Q39026 1-395)
T2 construct: The N-terminal position of the His tag is read from the name His-MPK6 and the vector pQE30; also called His-fused MPK6; source: E. coli M15, purified (Ni-NTA agarose); not shown: His, N-terminal, kept

[3] = target: T3, His-MPK4 (Arabidopsis thaliana, UniProt Q39024 1-376)
T3 construct: The N-terminal position of the His tag is read from the name His-MPK4 and the vector pQE30; also called His-fused MPK4; source: E. coli M15, purified (Ni-NTA agarose); not shown: His, N-terminal, kept
T3 sequence (looked up): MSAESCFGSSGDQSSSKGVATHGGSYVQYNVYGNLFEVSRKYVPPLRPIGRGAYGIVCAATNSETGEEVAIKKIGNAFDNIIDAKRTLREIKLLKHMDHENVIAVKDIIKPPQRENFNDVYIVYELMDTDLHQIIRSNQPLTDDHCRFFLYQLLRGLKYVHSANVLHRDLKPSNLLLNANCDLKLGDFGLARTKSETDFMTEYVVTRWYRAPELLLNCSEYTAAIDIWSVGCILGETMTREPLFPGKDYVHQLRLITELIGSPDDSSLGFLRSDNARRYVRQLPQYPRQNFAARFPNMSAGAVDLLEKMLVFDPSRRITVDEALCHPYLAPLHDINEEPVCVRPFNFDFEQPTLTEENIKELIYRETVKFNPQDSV

T2 sequence (Q39026 whole entry, the tested form may be a part): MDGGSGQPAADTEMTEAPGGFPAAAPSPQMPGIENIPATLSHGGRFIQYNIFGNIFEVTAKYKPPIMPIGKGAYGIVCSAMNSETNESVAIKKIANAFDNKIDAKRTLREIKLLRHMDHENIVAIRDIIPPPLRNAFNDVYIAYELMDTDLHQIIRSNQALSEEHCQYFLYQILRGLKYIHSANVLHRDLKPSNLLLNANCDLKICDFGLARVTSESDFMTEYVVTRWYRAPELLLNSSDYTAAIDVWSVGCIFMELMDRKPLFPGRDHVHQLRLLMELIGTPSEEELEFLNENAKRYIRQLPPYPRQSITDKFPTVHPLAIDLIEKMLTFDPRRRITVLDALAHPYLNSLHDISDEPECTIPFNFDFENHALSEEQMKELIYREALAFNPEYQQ

- binding result [1]: binds
- binding result [2]: binds
- binding result [3]: binds
B1: GST-IAA8 (natural protein, Arabidopsis thaliana, UniProt Q38826 1-321, looked up)
chain: MSYRLLSVDKDELVTSPCLKERNYLGLSDCSSVDSSTIPNVVGKSNLNFKATELRLGLPESQSPERETDFGLLSPRTPDEKLLFPLLPSKDNGSATTGHKNVVSGNKRGFADTWDEFSGVKGSVRPGGGINMMLSPKVKDVSKSIQEERSHAKGGLNNAPAAKAQVVGWPPIRSYRKNTMASSTSKNTDEVDGKPGLGVLFVKVSMDGAPYLRKVDLRTYTSYQQLSSALEKMFSCFTLGQCGLHGAQGRERMSEIKLKDLLHGSEFVLTYEDKDGDWMLVGDVPWEIFTETCQKLKIMKGSDSIGLAPGAVEKSKNKERV
notes: IAA8 (Indole-3-Acetic Acid 8), Arabidopsis thaliana, At2g22670, full length, amplified from an Arabidopsis cDNA library and cloned into pGEX-4T-1; The N-terminal position of GST is read from the name GST-IAA8 and the vector pGEX-4T-1; also called GST-IAA8^WT; GST-fused IAA8; source: E. coli BL21 (DE3), purified (glutathione Sepharose-4B); not shown: GST, N-terminal, kept
